Measurements from patent publication US11370837 (dated 2022).

T1: mouse TIGIT-his (mouse, UniProt P86176)
T1 chain: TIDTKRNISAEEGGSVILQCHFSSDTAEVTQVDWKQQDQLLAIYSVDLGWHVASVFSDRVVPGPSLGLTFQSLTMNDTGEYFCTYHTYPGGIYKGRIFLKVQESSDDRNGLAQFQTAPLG

T2: human TIGIT on CHO cells (human, UniProt Q495A1)
T2 chain: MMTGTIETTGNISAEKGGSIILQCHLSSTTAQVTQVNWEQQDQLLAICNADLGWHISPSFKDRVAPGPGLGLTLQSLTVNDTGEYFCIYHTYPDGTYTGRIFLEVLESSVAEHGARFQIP

T3: human TIGIT-his (human, UniProt Q495A1)
T3 chain: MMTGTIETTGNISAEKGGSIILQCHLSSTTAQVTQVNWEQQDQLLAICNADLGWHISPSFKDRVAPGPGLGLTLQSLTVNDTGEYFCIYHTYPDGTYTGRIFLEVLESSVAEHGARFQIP


Columns and labels:
[1] = molecular target: monkey TIGIT-his (monkey); experiment: BLI
[2] = molecular target: T1, mouse TIGIT-his; experiment: BLI
[3] = molecular target: T2, human TIGIT on CHO cells; experiment: FACS
[4] = molecular target: T2, human TIGIT on CHO cells; experiment: competition, CD155 blocking FACS
[5] = molecular target: T3, human TIGIT-his; experiment: BLI
[6] = molecular target: T2, human TIGIT on CHO cells; experiment: competition, CD155 blocking FACS
[7] = molecular target: T2, human TIGIT on CHO cells; experiment: FACS, CHO-expressed antibody
[8] = molecular target: T1, mouse TIGIT-his; experiment: BLI
[9] = molecular target: T2, human TIGIT on CHO cells; experiment: competition

Chain of monkey TIGIT-his (monkey) (Q495A1 other isoform, or with tags, fused parts or gaps): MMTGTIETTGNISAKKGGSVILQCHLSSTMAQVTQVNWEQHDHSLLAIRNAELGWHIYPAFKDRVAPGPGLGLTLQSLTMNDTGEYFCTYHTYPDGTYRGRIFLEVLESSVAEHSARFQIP

Binder | Kd [1] [nM] | Kd [2] [nM] | EC50 [3] [nM] | IC50 [4] [nM] | Kd [5] [nM] | IC50 [6] [nM] | EC50 [7] [nM] | binding result [8] | IC50 [9] [nM]
ADI-30293 (antibody, V domains shown) VH: EVQLVESGGGLVQPGGSLRLSCAASGFTFSSYSMNWVRQAPGKGLEWVSYISSSGTINYADSVKGRFTISRDNAKNSLYLQMNSLRAEDTAVYYCARHRIADSPSRAFDIWGQGTMVTVSS VL: not shown | 34.9 | 13 | 0.9 | 0.859 | 0.789 | 0.251 | 0.229 | – | –
ADI-27238 (antibody, V domains shown) VH: QVQLVQSGAEVKKPGASVKVSCKASGYTFTSYYMSWVRQAPGQGLEWMGIINPSGGSTSYAQKFQGRVTMTRDTSTSTVYMELSSLRSEDTAVYYCARARYPSSWPYGMDVWGQGTTVTVSS VL: DIQMTQSPSSLSASVGDRVTITCRASQSINSYLNWYQQKPGKAPKLLIYAASSLQSGVPSRFSGSGSGTDFTLTISSLQPEDFATYYCQQSLLTPFTFGGGTKVEIK | – | – | 0.751 | 0.418 | – | – | – | – | –
ADI-30306 (antibody, V domains shown) VH: QLQLQESGPGLVKPSETLSLTCTVSGGSISSSLYYWGWIRQPPGKGLEWIGSIYYSGSTFYNPSFKSRVTISVDTSKNQFSLKLSSVTAADTAVYYCAREAGRGTTGLLFDYWGQGTLVTVSS VL: DIQMTQSPSTLSASVGDRVTITCRASQSISSWLAWYQQKPGKAPKLLIYKASSLESGVPSRFSGSGSGTEFTLTISSLQPDDFATYYCQQYGILPRTFGGGTKVEIK | 3.44 | – | – | – | 2.7 | – | – | no binding | –
ADI-27301 (antibody, V domains shown) VH: QLQLQESGPGLVKPSETLSLTCTVSGGSISSSSYYWGWIRQPPGKGLEWIGSIYYSGSTYYNPSLKSRVTISVDTSKNQFSLKLSSVTAADTAVYYCAREAGRGTTGLLFDYWGQGTLVTVSS VL: DIQMTQSPSTLSASVGDRVTITCRASQSISSWLAWYQQKPGKAPKLLIYKASSLESGVPSRFSGSGSGTEFTLTISSLQPDDFATYYCQQYGILPRTFGGGTKVEIK | – | – | 0.899 | 0.641 | – | – | – | – | –
ADI-30311 (antibody, V domains shown) VH: QLQLQESGPGLVKPSETLSLTCTVSGGSIASSVYYWGWIRQPPGKGLEWIGSIYYSGSTWYNPSLKSRVTISVDTSKNQFSLKLSSVTAADTAVYYCAREAGRTGTGLLFDYWGQGTLVTVSS VL: DIQMTQSPSTLSASVGDRVTITCRASQSISSWLAWYQQKPGKAPKLLIYKASSLESGVPSRFSGSGSGTEFTLTISSLQPDDFATYYCQQYGILPRTFGGGTKVEIK | – | – | 0.757 | 0.531 | – | – | – | – | –
ADI-27291 (antibody, V domains shown) VH: not shown VL: EIVMTQSPATLSVSPGERATLSCRASQSVSSNLAWYQQKPGQAPRLLIYSASTRATGIPARFSGSGSGTEFTLTISSLQSEDFAVYYCQQYVPHPPFTFGGGTKVEIK | – | – | 0.852 | 1.61 | – | – | – | – | –

Further binders by falling EC50 [3], results first:

Kd [1] [nM] | Kd [2] [nM] | EC50 [3] [nM] | IC50 [4] [nM] | Kd [5] [nM] | IC50 [6] [nM] | EC50 [7] [nM] | binding result [8] | IC50 [9] [nM] | Binder
0.556 | – | 0.629 | 0.409 | 1.46 | 0.122 | 0.13 | no binding | – | ADI-30336 (antibody, V domains shown) VH: QLQLQESGPGLVKPSETLSLTCTVSGGSISSSRYYWGWIRQPPGKGLEWIGSIYYSGSTYYNPSLKSRVTISVDTSKNQFSLKLSSVTAADTAVYYCARDGLYHTPEYFQHWGQGTLVTVSS VL: EIVLTQSPATLSLSPGERATLSCRASQSVSSYLAWYQQKPGQAPRLLIYDASNRATGIPARFSGSGSGTDFTLTISSLEPEDFAVYYCQQRFAHPYTFGGGTKVEIK
– | – | 0.61 | – | – | – | – | – | 0.404 | ADI-30272 (antibody, V domains shown) VH: QVQLVQSGAEVKKPGASVKVSCKASGYTFTEYYMHWVRQAPGQGLEWMGIISPSAGSTSYAQKFQGRVTMTRDTSTSTVYMELSSLRSEDTAVYYCARDHDIAAAGRLADYWGQGTLVTVSS VL: DIQMTQSPSSVSASVGDRVTITCRASQGISSWLAWYQQKPGKAPKLLISAASSLQSGVPSRFSGSGSGTDFTLTISSLQPEDFATYYCQQAVILPITFGGGTKVEIK
– | – | 0.496 | 0.603 | – | – | – | – | – | ADI-27297 (antibody, V domains shown) VH: QVQLVQSGAEVKKPGASVKVSCKASGYTFTSYYMHWVRQAPGQGLEWMGIINPSGGSTSYAQKFQGRVTMTRDTSTSTVYMELSSLRSEDTAVYYCARDHDIAAAGRLADYWGQGTLVTVSS VL: DIQMTQSPSSVSASVGDRVTITCRASQGISSWLAWYQQKPGKAPKLLISAASSLQSGVPSRFSGSGSGTDFTLTISSLQPEDFATYYCQQAVILPITFGGGTKVEIK
7.19 | 5.7 | 0.475 | 0.668 | 1.31 | 0.224 | 0.186 | – | – | ADI-30288 (antibody, V domains shown) VH: EVQLLESGGGLVQPGGSLRLSCAASGFTFGPYGMSWVRQAPGKGLEWVSAISGSGASTWHADSVKGRFTISRDNSKNTLYLQMNSLRAEDTAVYYCAKDPGTDSTGYYYIWRYWGQGTLVTVSS VL: EIVMTQSPATLSVSPGERATLSCRASQSVSSNLAWYQQKPGQAPRLLIYSASTRATGIPARFSGSGSGTEFTLTISSLQSEDFAVYYCQQYVPHPPFTFGGGTKVEIK
10.6 | 134 | 0.446 | 0.296 | 1.76 | 0.189 | 0.176 | – | – | ADI-30286 (antibody, V domains shown) VH: EVQLLESGGGLVQPGGSLRLSCAASGFTFGPYGMSWVRQAPGKGLEWVSAISGSGASTWYADSVKGRFTISRDNSKNTLYLQMNSLRAEDTAVYYCAKDPGTHYSGYYYIWRYWGQGTLVTVSS VL: EIVMTQSPATLSVSPGERATLSCRASQSVSSNLAWYQQKPGQAPRLLIYSASTRATGIPARFSGSGSGTEFTLTISSLQSEDFAVYYCQQYVPHPPFTFGGGTKVEIK
4.53 | – | 0.409 | 0.217 | 1.75 | 0.116 | 0.132 | no binding | – | ADI-30278 (antibody, V domains shown) VH: QVQLVQSGAEVKKPGASVKVSCKASGYTFTEYYMHWVRQAPGQGLEWMGIISPSAGSTKYAQKFQGRVTMTRDTSTSTVYMELSSLRSEDTAVYYCARDHDIRLAGRLADYWGQGTLVTVSS VL: DIQMTQSPSSVSASVGDRVTITCRASQGISSWLAWYQQKPGKAPKLLISAASSLQSGVPSRFSGSGSGTDFTLTISSLQPEDFATYYCQQAVILPITFGGGTKVEIK
– | – | 0.371 | 0.278 | – | – | – | – | – | ADI-30296 (antibody, V domains shown) VH: EVQLVESGGGLVQPGGSLRLSCAASGFTIGGYSMNWVRQAPGKGLEWVSYISSSSTIHYADSVKGRFTISRDNAKNSLYLQMNSLRAEDTAVYYCARHRIGRSPSRAFDIWGQGTMVTVSS VL: not shown
62.3 | 46.4 | 0.329 | 0.221 | 3.29 | 0.14 | 0.139 | – | – | ADI-30268 (antibody, V domains shown) VH: QVQLVQSGAEVKKPGASVKVSCKASGYTFGSYYMGWVRQAPGQGLEWMGIIDPSGGRTSYARKFQGRVTMTRDTSTSTVYMELSSLRSEDTAVYYCARARTPSSWPYGMDVWGQGTTVTVSS VL: DIQMTQSPSSLSASVGDRVTITCRASQSINSYLNWYQQKPGKAPKLLIYAASSLQSGVPSRFSGSGSGTDFTLTISSLQPEDFATYYCQQSLLTPFTFGGGTKVEIK
